Measured values as given in the nanobody polyreactivity screen of Harvey et al. (2022).

Experiment: yeast display, Sf9 membrane polyspecificity reagent, FACS + sequencing; frameworks hold sequencing errors
How it was run: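 Nanobodies from a synthetic yeast display library (Saccharomyces cerevisiae BJ5465), induced 36–48 hours with galactose, were stained 1 hour at 4 °C with 10% biotinylated, detergent-solubilized Sf9 membrane reagent, enriched on streptavidin microbeads, then FACS-sorted. Anti-HA (expression) and streptavidin (reagent binding) fluorescence set low and high (top ~1%) gates. Polyreactivity labels come from the gate of origin. Genes were colony-PCR amplified, MiSeq 2 × 250 sequenced and filtered by CDR length.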
In the case of “QVQLVESGVGLVQAGGSLRLSCAASGIIFKNYTRGWDRPAPWKEWELVAAISWRGGRTYYADSVKGRFTISRDNAKNTVYLQMNSLKPEDTAVYYCAKELYVSYRGGPWVDYWGQGTQVTVSS”, the “polyreactivity (PSR sort gate)” value is reported as “high polyreactivity”.
For “QVQLVESGVGLVQAGGSLRLSCAASGIIFSSYAMGWYRQAPGKERELVAAITWNGGRTYYADSVKGRFTISRDNAKNSVYLQMNSLKPEDTAVYYCAALQGRSSARQDSYGYWGQGTQVTVSS”, the “polyreactivity (PSR sort gate)” value was “high polyreactivity”.
In the case of “QVQLVESGVGLVQAGGSLRLSCAASGIIFTSNTMGWYRPAPGKEREFVASINWNGSSTYADSVKGRFTISRDNAKNTVYLQMNSLKPEDTAVYYCNADYKRNSVQFSLYDYWGQGTQVTVSS”, the “polyreactivity (PSR sort gate)” value is reported as “low polyreactivity”.
In the case of “QVQLVESGVGLVQAGGSLRLSCAASGIIFVTYTMAWYRQAHGKEREFVAAITRRGSRTYYADSVKGRFTISRDNAKNTVYLQMNSPKPEDTAVYYCNAVPRWSYVDEDSWGQGTQVTVSS”, the “polyreactivity (PSR sort gate)” value is reported as “high polyreactivity”.
In the case of “QVQLVESGVGLVQAGGSLRLSCAASGIIFYPNAMGWYRQAPGKERELVAAISWRSGSTYYADSVKGRFTISRDNAKKTVYLQMNSLKPEDTAVYYCNADFWYSYGYDYWGQGTQVTVSS”, the “polyreactivity (PSR sort gate)” value is reported as “low polyreactivity”.
With “QVQLVESGVGLVQAGGSLRLSCAASGITFYGYAMGWYRQAPGKDRELVAAINWGGTGTYYADSVKGRFTISRDNAKNTVYFQMNSLKPEDTAVYYCNKAGDPIADPTAGKRQFDYWGQGTQVTVSS” the “polyreactivity (PSR sort gate)” value was “low polyreactivity”.
For “QVQLVESGVGLVQAGGSLRLSCAASGITSRYYAMGCYRQAPGKERELVAAISGNGGRTYYADSVKGRFTISRDIAKNSVYFQMNSMKPEDTAVYYCAARAHKTRHNYWGQGTQVTVSS”, the “polyreactivity (PSR sort gate)” value was “high polyreactivity”.
For “QVQLVESGVGLVQAGGSLRLSCAASGLIFYRYAMGWNRQAPGKERELVAAISWSGGTTYYADSVKGRFTISRDNAKNTVYLQMNSLKPEDTAVYYCAATRLRTEYYWGQGTQVTVSS”, the “polyreactivity (PSR sort gate)” value was “high polyreactivity”.
In the case of “QVQLVESGVGLVQAGGSLRLSCAASGRIFHLYAMGWYRQAPGKERELVAAITFSGGSTYYADSVKGRFTISRDNAMNTVYLQMNSLKPEDTAVYYFAKRSFYWFSSRLPFKYDYWGQGTQVTVSS”, the “polyreactivity (PSR sort gate)” value is reported as “low polyreactivity”.
For “QVQLVESGVGLVQAGGSLRLSCAASGRIFPGNVMGWYIQAPGKERELVAAISRGGGSTYYADSVKGRFTISRDIAKNTVYAQMNSLKPEDTAVYYCNVLRYQSRFRYDYWGLGTQVTVSS”, the “polyreactivity (PSR sort gate)” value was “high polyreactivity”.
For “QVQLVESGVGLVQAGGSLRLSCAASGRIFSKYAMGWYRQAPGKERELVAAISANGGGSTYYADSVKGRFTISRDNAKNTFYLQMNSLKPEDSAVYYCAALAYSTTRGRLDYWGQGTQVTVSS”, the “polyreactivity (PSR sort gate)” value was “high polyreactivity”.
With “QVQLVESGVGLVQAGGSLRLSCAASGRIISRYAMGWYRQAPGKERELDAAISRRGGSTYYADSVKGRFTISRDNAKNTVYLQMNSLKPEDTAVYYCNADTGNRGYDYWGQGTQVTVSS” the “polyreactivity (PSR sort gate)” value was “high polyreactivity”.
In the case of “QVQLVESGVGLVQAGGSLRLSCAASGRLFQYYAMGWYRQAPGKERELVASISGTGGSTYYADSVKGRFTISRDNAKNTVYLQMNSLKPEDTAVYYCAVRVKLQYWREYNYWGQGTQVTVSS”, the “polyreactivity (PSR sort gate)” value is reported as “high polyreactivity”.
For “QVQLVESGVGLVQAGGSLRLSCAASGRTFDLYAMGWYRQAPGKERELVAAITKGGGSTYYADSVKGRFTISRDNAKNTVYLQMNSLKPEDTAVYYCAARKYKRIYRISSGIGYYWGQGTQVTVSS”, the “polyreactivity (PSR sort gate)” value was “high polyreactivity”.
With “QVQLVESGVGLVQAGGSLRLSCAASGRTFWYYGMGWYRQAPGKERELVAAISRSGGRTYYADSVKARFTISRDNAKNTVYLQMNSLKPEDTAVYYCGASYRRTFDYWGQGTQVTVSS” the “polyreactivity (PSR sort gate)” value was “high polyreactivity”.
With “QVQLVESGVGLVQAGGSLRLSCAASGRTIDHYAMGWYRQAPGKERELVAAISTTGGSTYYADSVKGRFTISRDNAKNTVYLQMNSLKPEDTAVYYCAARGLRTGGYWGQCTQVTVSS” the “polyreactivity (PSR sort gate)” value was “high polyreactivity”.
For “QVQLVESGVGLVQAGGSLRLSCAASGRTIKANAMGWYRQAPGKERELVAAISRRGGRTYYADSVKGRFTISRDNAKNTVYLQMNSLKPEDTAVYYCAVRWYSYRQRYNYWGQGTQVTVSS”, the “polyreactivity (PSR sort gate)” value was “high polyreactivity”.
With “QVQLVESGVGLVQAGGSLRLSCAASGSIFASYAMGWYRQAPGKERELVAAISRSGTSTRYADSVKGRFTISRDNAKNTVYLQMNSLKPEDTAVYYCAARWYVFFRKYDYWGQGTQVTVSS” the “polyreactivity (PSR sort gate)” value was “high polyreactivity”.
For “QVQLVESGVGLVQAGGSLRLSCAASGSIFGYYVMGWYRQAPGKERELVAAISGSDSSTYYADSVKGRFTISRDNAKNTVYLQMNRLKPEDTAVYYCNADQRYYPVEFDYWGQGTQVTVSS”, the “polyreactivity (PSR sort gate)” value was “low polyreactivity”.
For “QVQLVESGVGLVQAGGSLRLSCAASGSIFLRNDMAWYRQAPGKERELVAGISSVGSTYYADSVKGRFTISRDNAKNTVYLQMNSLKPEDTAVYYCAAERWGNPTDYQFWRPYDYWGQGTQVTVSS”, the “polyreactivity (PSR sort gate)” value was “low polyreactivity”.
For “QVQLVESGVGLVQAGGSLRLSCAASGSIFQGYAMGWYRQAPGKERELVAGITSSGGRTRYADSLKGRFTISRDNAKNTVYLQMNSLKPEDTAVYSCAADYVRHIGYNYWGQGNQVTVSS”, the “polyreactivity (PSR sort gate)” value was “high polyreactivity”.
In the case of “QVQLVESGVGLVQAGGSLRLSCAASGSIFVPNTMRWYRQAPGKERELVAAITGGGSTDYADSVKGRFTISRDNAKNTVYLQMNSLKPEDTAVYYCNKDYWRDVAQDVLDGYDYWGQGTQVTVSS”, the “polyreactivity (PSR sort gate)” value is reported as “low polyreactivity”.
With “QVQLVESGVGLVQAGGSLRLSCAASGSIFYENAMGWYRQEPGKEREFVATIDLIGDRTFYADSVKVRFTISRDNAKNTVYLQMNSLKPEDTAVYYCAAERVGVFFRYDYWGQGTQVTVSS” the “polyreactivity (PSR sort gate)” value was “low polyreactivity”.
In the case of “QVQLVESGVGLVQAGGSLRLSCAASGSIFYRNAMVWYRQAHGKERELVAAISGTGGSTYYADSLKGRFTISRDNAKNTVYLQMNSLKPEDTAVYYCASGVTYRHDYWGQGTQVTVSS”, the “polyreactivity (PSR sort gate)” value is reported as “high polyreactivity”.
In the case of “QVQLVESGVGLVQAGGSLRLSCAASGSTFEVHSMGWYRQAPGKERELVATITRSGGSTYYADSVKGRFTISRDNGKNTVYLQMNSLKPEDTAVYYCNALWELKWGQGTQVTVSS”, the “polyreactivity (PSR sort gate)” value is reported as “low polyreactivity”.
With “QVQLVESGVGLVQAGGSLRLSCAASGSTFKFYSMGWYRQAPGTERELVASITSSSGPTYFADSVKGRFTNSLDNAKNTVYLQMNSLKQEDTAVYYCAKRPIRYYHLLRGNYWGHGTQVTVSS” the “polyreactivity (PSR sort gate)” value was “low polyreactivity”.
In the case of “QVQLVESGVGLVQAGGSLRLSCAPSGSTLGYYVMGWYRQAPGKERELVAAITGGGSTDYADSVNGRFTISRDNAKNTVYLQMNSLKPEDTAVYYCAAERTRTGQLFWWGPIYDYWGLGTQVTVSS”, the “polyreactivity (PSR sort gate)” value is reported as “low polyreactivity”.
For “QVQLVESGVGLVQAGGSLRLSCASSGITFPSYTMGWYRQAPGKERELVATIRNGGSTYYADSVKGRFTISRDNAKNTVYLQMNSLKPEDTAVYYCAAVPLWDYKFFYYLLYDYWGQGTQVTVSS”, the “polyreactivity (PSR sort gate)” value was “low polyreactivity”.
For “QVQLVESGVGLVQAGGSLRLSSAASGSIFLSYDMGWYRQAPGKERELVAAITQSGGSTYYADSVKGRFTISRDNAKNTVYLQMNSLKPEDTAVYYCAADYGYFPQETYPTYGYYYWGQGTQVTVSS”, the “polyreactivity (PSR sort gate)” value was “low polyreactivity”.
With “QVQLVESGVGLVQAGGSLRLTCAASGSIFGRKAMGWYRKATGKERELVAAIRTRGGSTYYADSVKGRFTISRDNAKNTLYLQMNSLKPEDTAVFFCAAPGGGKVVDYWGQGTHVTVSS” the “polyreactivity (PSR sort gate)” value was “low polyreactivity”.
In the case of “QVQLVESGVGLVQAGGSLRVSCAASGLTFAYYDMGWYRQAPGKERELVAAITWNGGSTYYADSVKGRFTISRDNAKNTVYLQMNSLKPEDTAVYYCAASWGYGYSGRFDYWGQGTQVSVSS”, the “polyreactivity (PSR sort gate)” value is reported as “high polyreactivity”.
In the case of “QVQLVESGVGLVQAGGSLSLSCAASGFTFHDYAMGWYSQAPGKERELVAAIDWSGGRTYYADSVKGRFTISRDNAKNTVYLQMNSLKPEDTAVYYCAAVRYSRLYWYRLDYGGQGTQVTVSS”, the “polyreactivity (PSR sort gate)” value is reported as “low polyreactivity”.
In the case of “QVQLVESGVGLVQAGGSLSLSCAASGIIFYWYAMGWYRQAPGKEREMVATITSTGGSTNYADSVKGRFTISRDNAKNSVYVQMNSLKPEYTAVYYCSTSGPQYYSRNFDYWGQGTQVTVSS”, the “polyreactivity (PSR sort gate)” value is reported as “low polyreactivity”.
For “QVQLVESGVGLVQAGGSLSLSCAASGSTFPKYAMGWYRQAPGKERELVAAISGSGGSTYYADSVKGRFTISRDNAKNTVYLQMNSLKREDTAVYYCAVAWNVRGVGARQRYIYGYWGQGTQVTVSS”, the “polyreactivity (PSR sort gate)” value was “high polyreactivity”.
With “QVQLVESGVGLVQAGGSLSLSCAASGTFVLYAMGWYRQAPGKERELVAAISKTGRTYYADSVKGRFTISRDNAKNTVYLQMNSLKPEDTAVYYCAAQRFSKFGYWGQGTQVTVSS” the “polyreactivity (PSR sort gate)” value was “high polyreactivity”.
For “QVQLVESGVGLVQARGSLRLSCAASGITFRRYAMGWYRQPPGKERELVAAITSSGGSTYYADSVKGRFTIPRDNAKNTVYLQMNSLKPEDTAVYYCAAAFFSQYYLYDYWGQGTQVTVSS”, the “polyreactivity (PSR sort gate)” value was “high polyreactivity”.
With “QVQLVESGVGLVQARGSLRLSCASSGSILIYNAMGWYRQAPGKVRELVAGISRRGDSTYYADSVKGRFTISRDNAKKTVYLQMNSLKPEDTAVYYCAALGKYIVAWSGDYWGQGTQVTVSS” the “polyreactivity (PSR sort gate)” value was “low polyreactivity”.
For “QVQLVESGVGLVQAVGSLRLSCAASGSTFYYYAMGWYRQAPGKERELVAAISWSGAYTFYSDSVKGRFTISRDNAKNTVYLQMNSLKPEDTAVYYCAARYYGQPQYQPLYYWGQGTQVTVSS”, the “polyreactivity (PSR sort gate)” value was “high polyreactivity”.
For “QVQLVESGVGLVQPGGSLRLIRAAYGRILRDYDMGWYSTAPRKERELVAAINWSDGSTYYADSVKGRFTISRDNAKYTVYLQMNCQKPVDTAVYYCAAEPYVFGLSSKRFWYNYWGQGTEVTVSS”, the “polyreactivity (PSR sort gate)” value was “low polyreactivity”.
For “QVQLVESGVGLVQSGGSLRLSCAASGFSIEPYAMGLYRQAPGKERELVAAISWSGGSTYYADSVKGRFTISRDNAKNTVYLQMNSLKPEDTAVYYCAAEWYNSAYYEYDYWGQGTQVTVST”, the “polyreactivity (PSR sort gate)” value was “high polyreactivity”.
With “QVQLVESGVRLVQAGGSHRLSCAASARTFYPNAMGWYRQAPGKEREFVARISDSGGSSYYADSVKGRFTISRDNAKNTVYLQMNSLKPEDTAVYYCAADYVDPRVNEYDYWGQGTQVTVST” the “polyreactivity (PSR sort gate)” value was “low polyreactivity”.
In the case of “QVQLVESGVRLVQAGGSLRLSCAASGFTFRLYAMGWYIQAPGKERELVAATTSGGSTYYADSVKGRFTISRDNAKNTVYLQMNSLKPEDTAVYYCNKLYRTSVEYDYWGQGTQVTVSS”, the “polyreactivity (PSR sort gate)” value is reported as “high polyreactivity”.
In the case of “QVQLVESGVVLVQAGGSLRLSCAASGSIFAGYVMGWYRQAPGKERELVASISSGTGTYYADSVKGRFTISRDNAKNTVYLQMNSLKPEDTAVYYCAAECYRTVQFIRSRWSYTYDYWGQGTQVTVSS”, the “polyreactivity (PSR sort gate)” value is reported as “low polyreactivity”.
